Here are results for five molecules from PMC8729806, “Chaperones mainly suppress primary nucleation during formation of functional amyloid required for bacterial biofilm formation†” (Chemical Science, 2021).

Assay [1] concerns the target CsgA from E. coli (residues 21-151), without its signal sequence (E. coli) (UniProt P28307).
The target in assay [2] is Full-length FapC (residues 25-250) from Pseudomonas sp. UK4, without its signal sequence (Pseudomonas sp. UK4).
Assay [3] has as its target CsgA from E. coli (residues 21-151), without its signal sequence (E. coli, UniProt P28307 21-151). The assay can be described thus: cell-based or functional assay.

CsgA from E. coli (residues 21-151), without its signal sequence (E. coli), sequence (P28307 21-151): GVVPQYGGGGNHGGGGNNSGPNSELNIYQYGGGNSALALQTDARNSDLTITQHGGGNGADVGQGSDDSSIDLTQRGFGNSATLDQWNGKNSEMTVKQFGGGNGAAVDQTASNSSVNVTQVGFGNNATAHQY
Full-length FapC (residues 25-250) from Pseudomonas sp. UK4, without its signal sequence (Pseudomonas sp. UK4), sequence (P0DXF5 25-250 limits assumed): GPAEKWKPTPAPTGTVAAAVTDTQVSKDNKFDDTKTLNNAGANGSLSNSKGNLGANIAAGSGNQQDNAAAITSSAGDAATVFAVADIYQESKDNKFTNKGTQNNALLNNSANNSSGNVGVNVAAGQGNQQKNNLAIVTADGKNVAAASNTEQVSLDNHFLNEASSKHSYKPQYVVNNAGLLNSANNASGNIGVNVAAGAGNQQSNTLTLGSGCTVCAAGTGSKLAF
CsgA from E. coli (residues 21-151), without its signal sequence, sequence (P28307 21-151): as the sequence (P28307 21-151) above

Consider “Bri2 BRICHOS monomer (M-Bri2) (domain or fragment)”, for which the fold reduction of the primary nucleation rate constant kn of spontaneous CsgA fibrillation (ThT kinetics, Amylofit), by 1 μM Bri2 monomer (fold reduction) in assay [1] came to 1000. For the same molecule, the fold reduction of the primary nucleation rate constant kn of spontaneous FapC fibrillation (ThT kinetics, Amylofit), by 6 μM Bri2 monomer (fold reduction) in assay [2] stood at 40.

Molecule “Bri2 BRICHOS oligomer (O-Bri2) (from UniProt Q9Y287 137-231) (domain or fragment)” gave a fold reduction of the primary nucleation rate constant kn of spontaneous CsgA fibrillation (ThT kinetics, Amylofit), by 1 μM Bri2 oligomer (fold reduction) in assay [1] of 100000. This molecule came in with a fold reduction of the primary nucleation rate constant kn of spontaneous FapC fibrillation (ThT kinetics, Amylofit), by 6 μM Bri2 oligomer (fold reduction) in assay [2] of 10.

Take “DNAJB6 mutant F91L, used as pseudowildtype (from UniProt O75190 1-326) (natural protein)”: the fold reduction of the primary nucleation rate constant kn of spontaneous CsgA fibrillation (ThT kinetics, Amylofit), by 0.12 μM DNAJB6 (fold reduction) in assay [1] is 1e+07. Besides, the fold reduction of the primary nucleation rate constant kn of spontaneous FapC fibrillation (ThT kinetics, Amylofit), by 0.6 μM DNAJB6 (fold reduction) in assay [2] turned out to be 1000.

B1: S100A9 (natural protein, human, UniProt P06702 1-114, looked up)
chain: MTCKMSQLERNIETIINTFHQYSVKLGHPDTLNQGEFKELVRKDLQNFLKKENKNEKVIEHIMEDLDTNADKQLSFEEFIMLMARLTWASHEKMHEGDEGPGHHHKPGLGEGTP
modifications: Alexa Fluor 546 label (peptide array only)
B1 came in with a fold reduction of the primary nucleation rate constant kn of spontaneous FapC fibrillation (ThT kinetics, Amylofit), at 50 μM S100A9 (fold reduction) in assay [2] of 6. For the same molecule, the “fold reduction of the primary nucleation rate constant kn of spontaneous CsgA fibrillation (ThT kinetics, Amylofit), at 4 μM S100A9” value in assay [3] was determined as 20 fold reduction.

B2: CsgC (natural protein, UniProt P52107 9-110, looked up)
chain: ALSSQITFNTTQQGDVYTIIPEVTLTQSCLCRVQILSLREGSSGQSQTKQEKTLSLPANQPIALTKLSLNISPDDRVKIVVTVSDGQSLHLSQQWPPSSEKS
modifications: Alexa Fluor 546 label (peptide array only)
As to B2, in assay [3], the “fold reduction of the primary nucleation rate constant kn of spontaneous CsgA fibrillation (ThT kinetics, Amylofit), by 1 μM CsgC” value is approximately 100000 fold reduction.
